# Test results from patent US20100016434.
# T1: biotinylated HIF1α peptide, Q16665
# T1 chain: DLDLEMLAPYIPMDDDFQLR
# Biological target: T1, biotinylated HIF1α peptide, Q16665
protein,measurement,value
EGLN3 in vitro translate (protein) MPLGHIMRLDLEKIALEYIVPCLHEVGFCYLDNFLGEVVGDCVLERVKQLHCTGALRDGQLAGPRAGVSKRHLRGDQITWIGGNEEGCEAISFLLSLIDRLVLYCGSRLGKYYVKERSKAMVACYPGNGTGYVRHVDNPNGDGRCITCIYYLNKNWDAKLHGGILRIFPEGKSFIADVEPIFDRLLFFWSDRRNPHEVQPSYATRYAMTVWYFDAEERAEAKKKFRNLTRKTESALTED,"EGLN3 prolyl hydroxylase activity on the HIF1α peptide, read by capture of 35S-labeled pVHL",EGLN3 hydroxylase activity was diminished in the face of increasing amount of succinate
